Experiments:
[1] = biological target: DLL4 extracellular domain (R&D systems, catalog #1506-D4/CF) (UniProt Q9NR61); assay: cell-based or functional assay
human Dll1 (human) [2] = biological target: human Dll1 (human) (UniProt O00548); assay: FACS, 1 µg/ml, 293T cells with human Dll1
human Dll1 (human) [3] = biological target: human Dll1 (human) (UniProt O00548); assay: FACS, 5 µg/ml, 293T cells with human Dll1
human Dll1 (human) [4] = biological target: human Dll1 (human) (UniProt O00548); assay: FACS, 0.2 µg/ml, 293T cells with human Dll1
human Dll1 (human) [5] = biological target: human Dll1 (human) (UniProt O00548); assay: FACS, 1 µg/ml, 293T cells with human Dll1 vs mock
human Dll1 (human) [6] = biological target: human Dll1 (human) (UniProt O00548); assay: FACS, 5 µg/ml, 293T cells with human Dll1 vs mock
human Dll1 (human) [7] = biological target: human Dll1 (human) (UniProt O00548); assay: FACS, 0.2 µg/ml, 293T cells with human Dll1 vs mock
human Jagged1 (human) [8] = biological target: human Jagged1 (human) (UniProt P78504); assay: FACS, 1 µg/ml, 293T cells with human Jagged1
human Jagged1 (human) [9] = biological target: human Jagged1 (human) (UniProt P78504); assay: FACS, 5 µg/ml, 293T cells with human Jagged1
human Jagged1 (human) [10] = biological target: human Jagged1 (human) (UniProt P78504); assay: FACS, 0.2 µg/ml, 293T cells with human Jagged1
human Jagged1 (human) [11] = biological target: human Jagged1 (human) (UniProt P78504); assay: FACS, 1 µg/ml, 293T cells with human Jagged1 vs mock
human Jagged1 (human) [12] = biological target: human Jagged1 (human) (UniProt P78504); assay: FACS, 5 µg/ml, 293T cells with human Jagged1 vs mock
human Jagged1 (human) [13] = biological target: human Jagged1 (human) (UniProt P78504); assay: FACS, 0.2 µg/ml, 293T cells with human Jagged1 vs mock

Chain of DLL4 extracellular domain (R&D systems, catalog #1506-D4/CF) (Q9NR61 27-529 limits assumed): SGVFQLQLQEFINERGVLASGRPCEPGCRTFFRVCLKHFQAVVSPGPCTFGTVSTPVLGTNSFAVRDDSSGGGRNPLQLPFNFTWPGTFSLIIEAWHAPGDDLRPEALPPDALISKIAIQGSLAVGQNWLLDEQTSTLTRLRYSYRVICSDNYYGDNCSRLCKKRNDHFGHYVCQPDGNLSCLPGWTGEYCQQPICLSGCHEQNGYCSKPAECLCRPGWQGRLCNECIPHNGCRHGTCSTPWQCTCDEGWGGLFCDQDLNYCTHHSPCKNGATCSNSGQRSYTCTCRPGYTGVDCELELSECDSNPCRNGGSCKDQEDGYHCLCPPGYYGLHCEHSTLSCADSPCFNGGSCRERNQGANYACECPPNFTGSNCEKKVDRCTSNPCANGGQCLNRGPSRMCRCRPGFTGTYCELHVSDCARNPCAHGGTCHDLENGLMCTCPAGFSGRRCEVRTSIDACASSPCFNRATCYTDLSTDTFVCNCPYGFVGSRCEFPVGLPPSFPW
Chain of human Jagged1 (human) (P78504 34-1218): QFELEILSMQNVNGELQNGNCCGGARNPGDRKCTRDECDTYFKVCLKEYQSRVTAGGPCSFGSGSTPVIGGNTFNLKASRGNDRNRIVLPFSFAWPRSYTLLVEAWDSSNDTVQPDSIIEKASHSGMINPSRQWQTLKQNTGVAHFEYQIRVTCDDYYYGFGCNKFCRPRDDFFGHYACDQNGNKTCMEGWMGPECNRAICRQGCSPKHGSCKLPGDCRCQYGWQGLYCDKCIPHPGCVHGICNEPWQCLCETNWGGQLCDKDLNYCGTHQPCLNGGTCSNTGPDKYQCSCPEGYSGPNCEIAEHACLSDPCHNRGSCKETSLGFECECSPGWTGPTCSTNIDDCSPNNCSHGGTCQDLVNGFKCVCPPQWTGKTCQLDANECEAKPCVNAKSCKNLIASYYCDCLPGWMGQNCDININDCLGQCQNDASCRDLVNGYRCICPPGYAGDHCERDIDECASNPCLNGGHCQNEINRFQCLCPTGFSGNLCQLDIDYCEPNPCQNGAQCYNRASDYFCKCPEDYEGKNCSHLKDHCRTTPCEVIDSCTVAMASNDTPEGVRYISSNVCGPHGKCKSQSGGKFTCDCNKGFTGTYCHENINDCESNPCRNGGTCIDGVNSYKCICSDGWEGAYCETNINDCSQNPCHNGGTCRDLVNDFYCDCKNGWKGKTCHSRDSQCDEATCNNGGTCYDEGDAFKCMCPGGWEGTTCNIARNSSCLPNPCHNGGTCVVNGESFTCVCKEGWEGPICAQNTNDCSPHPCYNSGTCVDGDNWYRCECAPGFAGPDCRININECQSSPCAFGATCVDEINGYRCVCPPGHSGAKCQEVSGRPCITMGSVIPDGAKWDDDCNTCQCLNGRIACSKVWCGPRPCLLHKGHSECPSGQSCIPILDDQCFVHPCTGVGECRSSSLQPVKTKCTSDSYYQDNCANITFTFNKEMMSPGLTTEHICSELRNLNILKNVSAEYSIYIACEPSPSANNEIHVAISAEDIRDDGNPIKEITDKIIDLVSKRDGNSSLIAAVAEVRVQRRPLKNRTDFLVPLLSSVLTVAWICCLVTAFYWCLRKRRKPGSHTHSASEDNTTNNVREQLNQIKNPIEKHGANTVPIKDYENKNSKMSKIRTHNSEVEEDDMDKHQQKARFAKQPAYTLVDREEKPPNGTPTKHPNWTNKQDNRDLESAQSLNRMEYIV
Chain of human Dll1 (human) (O00548 18-723): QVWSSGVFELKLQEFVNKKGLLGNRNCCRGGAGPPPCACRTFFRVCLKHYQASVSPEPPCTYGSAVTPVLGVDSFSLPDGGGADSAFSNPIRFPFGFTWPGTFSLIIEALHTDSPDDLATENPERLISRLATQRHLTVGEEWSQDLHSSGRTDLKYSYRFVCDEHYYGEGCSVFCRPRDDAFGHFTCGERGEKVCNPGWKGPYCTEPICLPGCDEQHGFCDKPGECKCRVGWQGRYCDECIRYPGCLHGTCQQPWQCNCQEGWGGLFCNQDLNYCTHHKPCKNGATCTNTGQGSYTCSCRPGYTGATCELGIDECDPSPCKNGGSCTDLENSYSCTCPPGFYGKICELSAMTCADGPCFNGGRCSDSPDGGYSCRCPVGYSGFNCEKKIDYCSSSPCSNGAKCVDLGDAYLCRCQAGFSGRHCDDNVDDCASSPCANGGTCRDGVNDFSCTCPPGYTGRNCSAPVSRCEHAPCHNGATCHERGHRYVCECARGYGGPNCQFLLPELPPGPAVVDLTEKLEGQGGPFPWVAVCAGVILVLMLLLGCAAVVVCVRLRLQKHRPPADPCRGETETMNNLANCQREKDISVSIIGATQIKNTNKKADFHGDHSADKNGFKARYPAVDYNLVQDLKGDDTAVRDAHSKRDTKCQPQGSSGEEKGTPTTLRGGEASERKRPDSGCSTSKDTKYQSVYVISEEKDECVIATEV

Work on Control IgG2 (antibody) yielded a % inhibition 1 µg/ml, AVERAGE (HUVEC proliferation on coated DLL4) [1] of 9%, a % inhibition 1 µg/ml, N = 1 (HUVEC proliferation on coated DLL4) [1] of 18% and a % inhibition 1 µg/ml, N = 2 (HUVEC proliferation on coated DLL4) [1] of 0%. For the same substance, the % inhibition 10 µg/ml, AVERAGE (HUVEC proliferation on coated DLL4) [1] was 10%, the % inhibition 10 µg/ml, N = 1 (HUVEC proliferation on coated DLL4) [1] was 11% and the % inhibition 10 µg/ml, N = 2 (HUVEC proliferation on coated DLL4) [1] was 9%.
For Control IgG4 (antibody), the % inhibition 1 µg/ml, AVERAGE (HUVEC proliferation on coated DLL4) [1] was 11%, the % inhibition 1 µg/ml, N = 1 (HUVEC proliferation on coated DLL4) [1] was 14% and the % inhibition 1 µg/ml, N = 2 (HUVEC proliferation on coated DLL4) [1] was 8%. It also gave a % inhibition 10 µg/ml, AVERAGE (HUVEC proliferation on coated DLL4) [1] of 2%, a % inhibition 10 µg/ml, N = 1 (HUVEC proliferation on coated DLL4) [1] of 6% and a % inhibition 10 µg/ml, N = 2 (HUVEC proliferation on coated DLL4) [1] of -3%.
“Goat anti-human Dll1 antibody (R&D systems cat #AF1818)” was tested, and the Dll1/293T X Geo mean (human Dll1 (human) [2]) was 1240, the Dll1/293T X Geo mean (human Dll1 (human) [3]) was 1840 and the Dll1/293T X Geo mean (human Dll1 (human) [4]) was 565. The Dll1/mock ratio (human Dll1 (human) [5]) was 6.33, the Dll1/mock ratio (human Dll1 (human) [6]) was 7.68 and the Dll1/mock ratio (human Dll1 (human) [7]) was 6.94.
“Mouse anti-human Jagged 1 antibody (R&D systems, catalog #mAB1277)” was tested, and the Jagged1/293T X Geo mean (human Jagged1 (human) [8]) was 119, the Jagged1/293T X Geo mean (human Jagged1 (human) [9]) was 196 and the Jagged1/293T X Geo mean (human Jagged1 (human) [10]) was 50.7. It also gave a Jagged1/mock ratio (human Jagged1 (human) [11]) of 3.94, a Jagged1/mock ratio (human Jagged1 (human) [12]) of 4.29 and a Jagged1/mock ratio (human Jagged1 (human) [13]) of 3.38.

Reference: patent US20100196385A1
